According to a protein production outcome set (Wang et al. 2014):

Experiment: label from the status in PepcDB records

Sequence	protein production
MMPSVHRRSRPWDPEATPRIPEMALQPAAGARDLNPRQVESNRALSERLASVFRLWGYDEVSPPRVERLDTLMAGGAIASEDVVRLVADEPLGLRPEMTASIARAACTRLASRPRPLRLWASGTVFQSRAADEGGQCIEENLQCGVELFGVAPIEAEMELLSLLMAAVERLDFQAQHQPRLLMGHTGLMDLLLSPVPPVLRDAVRAALIQYDRLGLETIELEEGLRATLLSLLDCRGTPNEVLERLSSCFGAQALFDDLHRLCRQLQGPAAAQGVRLQLDPTFQPRFELYTGLVFQLVCDTHSAPVVVARGGRYDDLVRRCGAQPGQDFGAGFSLAIDPIRELLSDSSSNPTVAPQLMVAFSERSTLEAALERQRWWHQQGRSAVIELHPFSTRSLAEQQATDQGGFQLDWIDP	failed
MKIEAASEQHLSVYRRYFRACRDEDFEYYRGLPDDADGWLLKVVQHADGEALPEGWVPCQTWFLLSDDGEIAGAARLREGETAVIQDVIGHIGFEVLPQWRGHGYGRVLLQYVQAMAPAPACGNWVLVCDADSPASVRTIEACGGQRLEDMPQPDGRV	failed
MEWGGLDERQICWQVNGRGGQGLAGCSFLRGVRKRSRPPRLLPSRPPAAMSTFERHIIKRLLKGFVLFVGALLVFFIVLHWVEYSDDFLDGGATIWEVFTVFYPNYVPEIIRLTSPLALFLSCIYLTGTLAQELQLVALQTSGVSLYQLMRPYLGVGLLVTVFMFGFNGWVVPKTNEVVVRYENEYLPGNQKSVQTSEIHRRNGPNSILSVGYYDADRERAHTVSLQQLAGDARLARRVDANRMEWDDSLEVWRLDDVTRRTFVKGETQRKRTIASLDTTLQVYPRDLARSKNDVAAMTIPAAAEYLAALRRSGVGGLTRPLVAYYNKFAYPFANLLLVLIGVPIASTRRRGGQAVRFAIGLLIAFVYLSVQKLAEPLGYAGTLSPAWTAWLPHLTFAVVALLVLWWARK	failed
MDSMILGRYIPGDSIVHRLDPRSKLLAMMLLILIVFWANNPLTNLILFIATGIFIALSGVSLSFFIQGLKSMFFLIAFTTIFQLFFISNGNVLFEFSFVRITDYALQQAGIIFCRFVLIIFFSTLLTLTTMPLSLASAVEALLAPLKRVKVPVHEIGLMLSMSLRFVPTLMDDTTRIMNAQKARGVDFGEGSIVQKVKAMIPILIPLFATSLKRADSLAIAMEARGYQGGKGRSQYRQLKWTLKDTLTILVILVLGCCLFFLKS	failed
MSLAEGKWWRIMLVDTQLPALAASISALSQEGFDIIQCGNAIEAVPVAVKTHPHLIITEANMPKISGMDLFNSLKKNPQTASIPVIALSGRATAKEEAQLLDMGFIDFIAKPVNAIRLSARIKRVLKLLYEDLSAPPAREGHHHHHH	not failed
METYDVLVVGGGPGGSTAARYAAKYGLKTLMIEKRPEIGSPVRCGEGLSKGILNEADIKADRSFIANEVKGARIYGPSEKRPIILQSEKAGNEVGYVLERDKFDKHLAALAAKAGADVWVKSPALGVIKENGKVAGAKIRHNNEIVDVRAKMVIAADGFESEFGRWAGLKSVILARNDIISALQYRMINVDVDPDYTDFYLGSIAPAGYIWVFPKGEGMANVGIGSSINWIHNRFELKNYLDRFIENHPGLKKGQDIQLVTGGVSVSKVKMPITMPGLMLVGDAARLIDPITGGGIANAIVSGMYAAQVTKEAIESNDYSPQMMQKYEKLIKERFERKHLRNWVAKEKLAMLSDDTLDKLVDIVSEQVLTTISVEAILKAIAEKYPEVVKELEDLI	not failed
MVKMKKVEQLSSHLYLIDDFDLQHNERTGTYVLLGDDITLIETCAAPSLPYILDGLQQLHIDLNEVKNIIVTHVHLDHAGAAGLMMEKCPNATLYVHSRGARHMIDPTKLILGAKAVYKEDFDKLFDPILPIEEERVHIVQHGDTLQIAEDRILTFYDTPGHAKHHISIHDSLTNGIFTGDTIGIYYRELADLGVELYLPSTSPSQFQPDAMIASKNHIQSMNVDTIYFGHYGASSNVTEVYKQLEHWLPIFVHTGKEVFEKYNDFDEATKALQTILMDKISSHLIKLNVPSDHSVYNILHLDIEISAMGIIDYFTKLEKTNPPIS	failed
MARFRDELLLASLIALAALILLRGLGNDSLGFPDADRILMDSVFLRDLLVDLPLADPIGYTKDYFVQYPALSIGYRPPFFPFVAALLQLLVGPEMWATRLALFGFVLVGVASSYFWIRRHYGPWPAWGATALWLTTPYLAQWGWYTMAELTVLSMALLAANLFDKYLAEGKPALLYWSVLAVALAAWTKQTALFLLPWFAAMALAEGRFLAILRRREAWIAAFGLGVLLAPLVAMTLMLGDLNLEQSVGGTNRWTLANWTVRLKTILHHLTPPLLALSVVGAIWAGLKRDRHGLPFALLIVVVYGVFSYISGKNDRYPIFWVPAFALFAVLPFHFLSQRLPAKATVPALALGVGVLAAYQGSLAFTKTPSYATGYKEAAAYVLDSSETPIVFVDAYNNGYFTYFMRALDQGRSMVVLRGDKLLSSSAINMATKVEVHAEGRQEIEEIFRSLGVSLIVVEERNYTGLDVHDELRRFLKTDSFELVQAIPIHSNRTVSVLADFPPLGGQDLLVYRYKDAKTLTSGVVSLRLPVVGQTLSVDMETMMERRRAHP	failed
TPLAEGAKAIETLCKLIKKGHIVAVKGIGGFHLVCDATKNRVVMELRERKKRPTKPFAVMFRSVFEIGKCTELSPIEEATILSPERPIVLISKRRPHRLEKFLISCDGVAPRVGTMGVFLPYSPLHSLLMEQAKIPLVFTSANLSGEPLIRDFKELCEKLSGVFDYYLDHDREILNPCDDSVVTIQNNKFQV	failed
MRNKNMSTIYQTSATASAGRNGVVSTEDKLLELNLSYPKEMGGSGTATNPEQLFAVGYAACFSNAILHVAREAKVALKEAPVTATVGIGPNGQGGFALSVALAAHIALEDEQARQLVTVAHQVCPYSNAVRGNIDVQVSVNGLAL	not failed
MDLSLLKALSEADAIASSEQEVRQILLEEAARLQKEVRFDGLGSVLIRLNESTGPKVMICAHMDEVGFMVRSISREGAIDVLPVGNVRMAARQLQPVRITTREECKIPGLLDGDRQGNDVSAMRVDIGARTYDEVMQAGIRPGDRVTFDTTFQVLPHQRVMGKAFDDRLSCYLLVTLLRELHDAELPAEVWLVASSSEEVGLRGGQTATRAVSPDVAIVLDTACWAKNFDYGAANHRQIGNGPMLVLSDKSLIAPPKLTAWIETVAAEIGVPLQADMFSNGGTDGGAVHLTGTGVPTLVMGPATRHGHCAASIADCRDILQMEQLLSALIQRLTRETVVQLTDFR	not failed
MDSGKSRSLETTVKRVYRDLLLPKINTSKKMSTLTNSPSSLEGTPGIKKNSGEMQAEASAERVKLTKSIKEKQNNELEKVALKRKADSEEKLVGKKEAKIMELDNQLVTTVPLPHIPLKNIMDVEMKLVYVDEEDVSYEFAQPNMCLGLQATGQTATTMPPASPRDLTTLPQIDKWLQVALKDASSCYRQKKYAVAAGQFRTALELCSKGAALGKPFEAHAEDIASIASFIETKLVTCYLRMRKPDLALNHAHRSIVLNPAYFRNHLRQAAVFRCLERYSEAARSAMIADYMFWLCGGSEHSVSKLIKLYWQAMIEEAITRAEAFSVMYTPFATRIKPENIEKVKEVFMRTHPTYVDCIYTDTQGLHVLPQTADWSCFPPQQYLLTLGFKNKEDGKFLEKVSSRKLPTYTEHKTPFSPLTREDTVRHMETVGKRILPILDFIRSTQLNGNFHACSGVMEKLHYASLLSRLQRVKEQAQVINQAMAELATVPYLQDISQQEAELLQSLMADAMDTLEGKKSDKERVWNTIQKVKF	failed
MSETELRKRQAQFTRELHGDDIGKKTGLSALMSKNNSAQKEAVQKYLRNWDGRTDKDAEERRLEDYNEATHSYYNVVTDFYEYGWGSSFHFSRFYKGESFAASIARHEHYLAYKAGIQRGDLVLDVGCGVGGPAREIARFTGCNVIGLNNNDYQIAKAKYYAKKYNLSDQMDFVKGDFMKMDFEENTFDKVYAIEATCHAPKLEGVYSEIYKVLKPGGTFAVYEWVMTDKYDENNPEHRKIAYEIELGDGIPKMFHVDVARKALKNCGFEVLVSEDLADNDDEIPWYYPLTGEWKYVQNLANLATFFRTSYLGRQFTTAMVTVMEKLGLAPEGSKEVTAALENAAVGLVAGGKSKLFTPMMLFVARKPENAETPSQTSQEATQ	failed
MSAIPENANVTVLNKNEKKARELIGKLGLKQIPGIIRVTFRKKDNQIYAIEKPEVFRSAGGNYVVFGEAKVDNFTQKLAAAQQQAQASGIMPSNEDVATKSPEDIQADMQAAAEGSVNAAAEEDDEEGEVDAGDLNKDDIELVVQQTNVSKNQAIKALKAHNGDLVNAIMSLSK	failed
